The assay addresses GST-TRAF6 (mouse) (UniProt P70196). In words: SPR. In general terms: In SPR one partner is held on a chip, and binding of the other changes the refractive index at the surface.

The Kd is the equilibrium constant for the complex coming apart. A low value points to a tighter complex. For orientation: stoichiometry N means the number of molecules, sites or subunits per partner or assembly.

Chain of UniProt P70196 (P70196 whole entry): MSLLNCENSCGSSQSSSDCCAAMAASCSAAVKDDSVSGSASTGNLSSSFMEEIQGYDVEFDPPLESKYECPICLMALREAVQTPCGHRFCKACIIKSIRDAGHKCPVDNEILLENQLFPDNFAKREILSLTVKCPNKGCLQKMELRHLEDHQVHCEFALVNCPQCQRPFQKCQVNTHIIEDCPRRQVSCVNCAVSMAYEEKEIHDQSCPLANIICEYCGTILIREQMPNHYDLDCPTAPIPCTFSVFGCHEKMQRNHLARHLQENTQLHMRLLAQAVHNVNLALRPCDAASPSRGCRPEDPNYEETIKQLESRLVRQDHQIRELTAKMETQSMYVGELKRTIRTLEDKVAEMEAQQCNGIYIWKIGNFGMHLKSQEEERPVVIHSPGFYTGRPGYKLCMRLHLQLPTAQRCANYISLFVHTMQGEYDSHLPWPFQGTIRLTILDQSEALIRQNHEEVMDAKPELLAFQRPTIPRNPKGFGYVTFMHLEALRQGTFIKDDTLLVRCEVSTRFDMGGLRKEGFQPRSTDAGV

Regarding “neuroplastin intracellular peptide containing the TRAF6 binding motif”, the Kd was found to be 88 µM and the stoichiometry N is 1.

The values above are taken from doi:10.1101/768341.
